IntAct's records for PubMed 22215984

B1: Transcriptional regulatory protein ComA (Bacillus subtilis), P14204 (parent)
chain: MKKILVIDDHPAVMEGTKTILETDSNLSVDCLSPEPSEQFIKQHDFSSYDLILMDLNLGGEVNGMELSKQILQENPHCKIIVYTGYEVEDYFEEAIRAGLHGAISKTESKEKITQYIYHVLNGEILVDFAYFKQLMTQQKTKPAPSSQKEQDVLTPRECLILQEVEKGFTNQEIADALHLSKRSIEYSLTSIFNKLNVGSRTEAVLIAKSDGVL
partner: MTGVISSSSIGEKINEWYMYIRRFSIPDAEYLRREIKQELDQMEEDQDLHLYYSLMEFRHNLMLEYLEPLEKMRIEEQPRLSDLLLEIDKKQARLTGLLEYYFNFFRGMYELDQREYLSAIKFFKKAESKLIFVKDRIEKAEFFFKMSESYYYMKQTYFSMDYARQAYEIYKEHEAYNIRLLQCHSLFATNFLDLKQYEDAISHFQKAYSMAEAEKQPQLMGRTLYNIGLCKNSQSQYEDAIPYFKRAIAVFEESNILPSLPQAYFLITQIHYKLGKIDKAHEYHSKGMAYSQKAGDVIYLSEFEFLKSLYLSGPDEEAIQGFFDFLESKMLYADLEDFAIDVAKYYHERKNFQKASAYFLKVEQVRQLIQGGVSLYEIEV
B2: Regulatory protein RapF (Bacillus subtilis), P71002 (parent)
chain: B1 partner
partner: B1 chain

Variants of: B1
Details: with rapf_bacsu rapF

Row | Variant | effect of a mutation on the interaction
1 | R183A | decreasing interaction
2 | Y187A | decreasing interaction
3 | T190A | decreasing interaction
4 | N194A | decreasing interaction

Variants of: B2
Details: with cmpa_bacsu comA

Row | Variant | effect of a mutation on the interaction
5 | F24A | disrupting interaction
6 | P27A | decreasing interaction
7 | D28A | disrupting interaction
8 | L67A | disrupting interaction
9 | Q78A | decreasing interaction
